Measured values taken from patent US20230270815A1 (RAJIV GANDHI CENTRE FOR BIOTECHNOLOGY, published 2023).
No end group written: not given here.

How the values were obtained:
[1] = biological target: T1, IL6Rα (Interleukin 6 Receptor α) (UniProt P08887 20-468, limits assumed); assay: cell-based or functional assay
T1 sequence (looked up): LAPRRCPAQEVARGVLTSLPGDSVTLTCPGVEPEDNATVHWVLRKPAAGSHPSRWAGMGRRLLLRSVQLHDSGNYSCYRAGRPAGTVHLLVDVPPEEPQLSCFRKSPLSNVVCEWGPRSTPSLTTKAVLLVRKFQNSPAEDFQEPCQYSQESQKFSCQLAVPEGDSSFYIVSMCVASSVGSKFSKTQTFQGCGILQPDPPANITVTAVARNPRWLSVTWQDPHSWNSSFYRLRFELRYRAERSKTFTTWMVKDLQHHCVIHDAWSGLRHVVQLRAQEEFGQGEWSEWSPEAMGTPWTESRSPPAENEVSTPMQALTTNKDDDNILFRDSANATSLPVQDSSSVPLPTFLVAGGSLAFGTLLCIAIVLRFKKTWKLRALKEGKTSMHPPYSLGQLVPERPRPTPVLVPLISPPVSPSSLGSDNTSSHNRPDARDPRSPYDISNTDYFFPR

[2] = biological target: T2, DSG3 (UniProt P32926 50-999, limits assumed); assay: co-immunofluorescence on HSC-4 cells
T2 construct: whole, on cells
T2 sequence (looked up): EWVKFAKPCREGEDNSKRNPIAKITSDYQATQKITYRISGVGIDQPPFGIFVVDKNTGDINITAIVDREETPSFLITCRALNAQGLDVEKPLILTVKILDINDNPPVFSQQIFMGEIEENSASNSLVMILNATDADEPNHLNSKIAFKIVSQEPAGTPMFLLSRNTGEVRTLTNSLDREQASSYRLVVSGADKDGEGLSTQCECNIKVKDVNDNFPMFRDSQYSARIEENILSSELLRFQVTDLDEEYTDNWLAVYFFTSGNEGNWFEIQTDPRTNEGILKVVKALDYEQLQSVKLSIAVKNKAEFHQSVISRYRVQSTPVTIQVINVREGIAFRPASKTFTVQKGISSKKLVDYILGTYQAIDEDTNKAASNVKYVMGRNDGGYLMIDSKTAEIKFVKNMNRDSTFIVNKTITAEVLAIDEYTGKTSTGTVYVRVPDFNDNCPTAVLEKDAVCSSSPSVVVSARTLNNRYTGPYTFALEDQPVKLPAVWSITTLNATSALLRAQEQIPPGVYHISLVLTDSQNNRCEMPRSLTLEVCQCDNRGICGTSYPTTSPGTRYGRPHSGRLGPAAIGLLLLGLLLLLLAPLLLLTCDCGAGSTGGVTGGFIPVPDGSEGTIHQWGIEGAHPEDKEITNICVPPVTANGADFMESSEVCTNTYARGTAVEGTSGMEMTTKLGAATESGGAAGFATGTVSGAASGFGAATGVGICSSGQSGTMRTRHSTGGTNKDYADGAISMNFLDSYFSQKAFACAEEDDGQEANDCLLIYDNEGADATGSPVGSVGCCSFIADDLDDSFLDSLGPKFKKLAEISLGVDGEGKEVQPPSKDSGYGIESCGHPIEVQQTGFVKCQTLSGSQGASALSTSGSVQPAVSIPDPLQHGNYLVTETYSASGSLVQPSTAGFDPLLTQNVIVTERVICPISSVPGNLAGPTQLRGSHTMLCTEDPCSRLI

[3] = biological target: T3, DLL1 (UniProt O00548 18-723, limits assumed); assay: co-immunofluorescence on HSC-4 cells
T3 construct: whole, on cells
T3 sequence (looked up): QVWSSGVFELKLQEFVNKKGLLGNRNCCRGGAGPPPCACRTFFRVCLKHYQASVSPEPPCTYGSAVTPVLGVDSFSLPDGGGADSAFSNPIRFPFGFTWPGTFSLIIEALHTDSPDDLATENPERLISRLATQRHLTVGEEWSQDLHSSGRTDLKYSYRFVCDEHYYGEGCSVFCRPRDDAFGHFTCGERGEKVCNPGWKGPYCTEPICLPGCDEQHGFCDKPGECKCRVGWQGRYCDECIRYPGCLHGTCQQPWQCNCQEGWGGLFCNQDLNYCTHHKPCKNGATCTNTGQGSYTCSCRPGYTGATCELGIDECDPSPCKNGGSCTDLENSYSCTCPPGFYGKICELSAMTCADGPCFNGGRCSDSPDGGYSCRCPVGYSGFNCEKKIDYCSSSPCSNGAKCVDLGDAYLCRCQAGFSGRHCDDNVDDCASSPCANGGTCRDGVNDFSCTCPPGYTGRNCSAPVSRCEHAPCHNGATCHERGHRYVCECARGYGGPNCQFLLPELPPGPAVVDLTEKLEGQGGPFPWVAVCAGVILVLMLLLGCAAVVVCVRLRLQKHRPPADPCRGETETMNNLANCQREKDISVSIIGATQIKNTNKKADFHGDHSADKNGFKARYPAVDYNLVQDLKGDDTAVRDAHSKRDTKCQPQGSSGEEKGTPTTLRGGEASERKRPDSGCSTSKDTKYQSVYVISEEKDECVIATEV

[4] = biological target: T4, GRPR (UniProt P30550 1-384, limits assumed); assay: co-immunofluorescence on HSC-4 cells
T4 construct: whole, on cells
T4 sequence (P30550 whole entry): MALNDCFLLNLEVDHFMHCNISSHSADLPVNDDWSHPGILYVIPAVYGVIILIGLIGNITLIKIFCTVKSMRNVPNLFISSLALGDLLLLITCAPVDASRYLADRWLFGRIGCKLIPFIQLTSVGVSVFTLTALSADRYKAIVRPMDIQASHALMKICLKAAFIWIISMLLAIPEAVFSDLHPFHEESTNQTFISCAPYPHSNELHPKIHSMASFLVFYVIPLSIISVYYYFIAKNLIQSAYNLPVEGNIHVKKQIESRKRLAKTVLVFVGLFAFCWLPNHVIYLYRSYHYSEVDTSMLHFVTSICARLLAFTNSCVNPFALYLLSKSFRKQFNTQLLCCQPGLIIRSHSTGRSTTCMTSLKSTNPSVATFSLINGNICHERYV

- growth inhibition of HSC-4 cells, MTT assay, IC50 [1]: 10.2 µM
- growth inhibition of MDA-MB-231 cells, MTT assay, IC50 [1]: 4.5 µM
- binding result [2]: no binding
- binding result [3]: no binding
- binding result [4]: no binding
B1: SSTP1 (Temporin1Dau1) (peptide)
peptide: FLPLLISALTSLFPKLGK
modifications: not fully specified
notes: Chemically synthesized mature peptide of 18 residues from frog skin secretion; No C-terminal amide is printed for SSTP1; also called SSTP1-biotin; SSTP1-Alexa Fluor-488
